In the experiment the target is RSV phosphoprotein fragment P_(127–163) (respiratory syncytial virus (RSV)) (UniProt P12579). Description: SAXS; SEC-SAXS, 293 K, 200 µM P127-163 in 20 mM Na phosphate pH 6.5, 100 mM NaCl; scattering curve fitted with the NMR structure on the FoXs server.

Usually stoichiometry N stands for a count of units in the complex or per binding partner. For “RSV phosphoprotein fragment P_(127–163) (from UniProt P12579 127-163) (domain or fragment)”, the stoichiometry N is 4.

The record behind these values is paper PMC8392014.
